Reference: patent US20200392183A1 (Memorial Sloan Kettering, published 2020)

molecular target: T1, HLA-A0201 molecule on T2 cells (TAP-, HLA-A0201+) (human); assay: T2 stabilization assay, surface HLA-A2 by flow cytometry (BB7.2)
T1 construct: Empty, thermolabile HLA-A0201 on T2 cells; also called HLA-A2; HLA-A2 molecule
Protocol: T2 cells (TAP-, HLA-A0201+) were incubated overnight at 37° C. at 1×10⁶ cells/ml in FCS-free RPMI medium supplemented with 10 ug/ml human beta-2m (Sigma, St Louis, Mo., USA) in the absence (negative control) or presence peptides at various final concentrations (50, 10 and 2 ug/ml). Brefeldin A (Sigma) at 5 ug/ml was added to the cultures for the final two hrs of incubation. Then T2 cells were washed and stained with anti-HLA-A2.1 (BB7.2) mAb conjugated to FITC for 30 min at 4° C. and followed by washing with staining buffer (PBS plus 1% FBS and 0.02% azide). The expression of the HLA-A2 on the cell surface was measured by flow cytometry on a FACScalibur (Becton Dickinson) and analyzed with FlowJo 9.6.3 software.

| Binder | binding result |
| --- | --- |
| NQMNLGATL (Synthetic 9-mer from Genemed Synthesis; also called native peptide; A24-native peptide) [native WT1 peptide NQMNLGATL (SEQ ID NO:5)] | no binding (tested: 50, 10 and 2 ug/ml tested) |
| NLMNLGATL (also called A24-het-1; Het24-1) [heteroclitic WT1 analogue peptide NLMNLGATL (SEQ ID NO:6)] | binds |
| NYMNLGATL (also called A24-het-2; Het24-2) [heteroclitic WT1 analogue peptide NYMNLGATL (SEQ ID NO:7)] | no binding (tested: 50, 10 and 2 ug/ml tested) |
